Measurements as given in US20160153985A1.

Key:
[1] = biological target: pure human iC3b (Complement Technology, A115) (human) (UniProt P01024); experiment: sandwich ELISA, capture A209 (Example 5), goat anti-C3-HRP; TABLE 6 well A2, blocker
[2] = biological target: pure human iC3b (Complement Technology, A115) (human) (UniProt P01024); experiment: sandwich ELISA, capture A209 (Example 5), goat anti-C3-HRP; TABLE 6 well B2, blocker
[3] = biological target: pure human iC3b (Complement Technology, A115) (human) (UniProt P01024); experiment: sandwich ELISA, capture A209 (Example 5), goat anti-C3-HRP; TABLE 6 well B3, blocker
[4] = biological target: pure human iC3b (Complement Technology, A115) (human) (UniProt P01024); experiment: sandwich ELISA, capture A209 (Example 5), goat anti-C3-HRP; TABLE 6 well B6, blocker
[5] = biological target: pure human iC3b (Complement Technology, A115) (human) (UniProt P01024); experiment: sandwich ELISA, capture A209 (Example 5), goat anti-C3-HRP; TABLE 6 well B7, blocker
[6] = biological target: pure human iC3b (Complement Technology, A115) (human) (UniProt P01024); experiment: sandwich ELISA, capture A209 (Example 5), goat anti-C3-HRP; TABLE 6 well B8, blocker
[7] = biological target: pure human iC3b (Complement Technology, A115) (human) (UniProt P01024); experiment: sandwich ELISA, capture A209 (Example 5), goat anti-C3-HRP; TABLE 6 well C3, 30% vitreous
[8] = biological target: pure human iC3b (Complement Technology, A115) (human) (UniProt P01024); experiment: sandwich ELISA, capture A209 (Example 5), goat anti-C3-HRP; TABLE 6 well D4, 30% vitreous
[9] = biological target: pure human iC3b (Complement Technology, A115) (human) (UniProt P01024); experiment: sandwich ELISA, capture A209 (Example 5), goat anti-C3-HRP; TABLE 6 well D6, 30% vitreous
[10] = biological target: pure human iC3b (Complement Technology, A115) (human) (UniProt P01024); experiment: sandwich ELISA, capture A209 (Example 5), goat anti-C3-HRP; TABLE 6 well E6, 20% vitreous
[11] = biological target: pure human iC3b (Complement Technology, A115) (human) (UniProt P01024); experiment: sandwich ELISA, capture A209 (Example 5), goat anti-C3-HRP; TABLE 6 well F6, 20% vitreous
[12] = biological target: pure human iC3b (Complement Technology, A115) (human) (UniProt P01024); experiment: sandwich ELISA, capture A209 (Example 5), goat anti-C3-HRP; TABLE 6 well G5, 10% vitreous
[13] = biological target: pure human iC3b (Complement Technology, A115) (human) (UniProt P01024); experiment: sandwich ELISA, capture A209 (Example 5), goat anti-C3-HRP; TABLE 6 well G6, 10% vitreous
[14] = biological target: pure human iC3b (Complement Technology, A115) (human) (UniProt P01024); experiment: sandwich ELISA, capture A209 (Example 5), goat anti-C3-HRP; TABLE 6 well G7, 10% vitreous
[15] = biological target: pure human iC3b (Complement Technology, A115) (human) (UniProt P01024); experiment: sandwich ELISA, capture A209 (Example 5), goat anti-C3-HRP; TABLE 6 well G9, 10% vitreous
[16] = biological target: pure human iC3b (Complement Technology, A115) (human) (UniProt P01024); experiment: sandwich ELISA, capture A209 (Example 5), goat anti-C3-HRP; TABLE 6 well H9, 10% vitreous
[17] = biological target: pure human iC3b (Complement Technology, A115) (human) (UniProt P01024); experiment: sandwich ELISA, capture A209 (Example 5), goat anti-C3-HRP; TABLE 7, iC3b in 20% vitreous
[18] = biological target: pure human iC3b (Complement Technology, A115) (human) (UniProt P01024); experiment: sandwich ELISA, capture A209 (Example 5), goat anti-C3-HRP; TABLE 7, iC3b in 30% vitreous

UniProt P01024, sequence (P01024 23-667 limits assumed, chain 1 of 3): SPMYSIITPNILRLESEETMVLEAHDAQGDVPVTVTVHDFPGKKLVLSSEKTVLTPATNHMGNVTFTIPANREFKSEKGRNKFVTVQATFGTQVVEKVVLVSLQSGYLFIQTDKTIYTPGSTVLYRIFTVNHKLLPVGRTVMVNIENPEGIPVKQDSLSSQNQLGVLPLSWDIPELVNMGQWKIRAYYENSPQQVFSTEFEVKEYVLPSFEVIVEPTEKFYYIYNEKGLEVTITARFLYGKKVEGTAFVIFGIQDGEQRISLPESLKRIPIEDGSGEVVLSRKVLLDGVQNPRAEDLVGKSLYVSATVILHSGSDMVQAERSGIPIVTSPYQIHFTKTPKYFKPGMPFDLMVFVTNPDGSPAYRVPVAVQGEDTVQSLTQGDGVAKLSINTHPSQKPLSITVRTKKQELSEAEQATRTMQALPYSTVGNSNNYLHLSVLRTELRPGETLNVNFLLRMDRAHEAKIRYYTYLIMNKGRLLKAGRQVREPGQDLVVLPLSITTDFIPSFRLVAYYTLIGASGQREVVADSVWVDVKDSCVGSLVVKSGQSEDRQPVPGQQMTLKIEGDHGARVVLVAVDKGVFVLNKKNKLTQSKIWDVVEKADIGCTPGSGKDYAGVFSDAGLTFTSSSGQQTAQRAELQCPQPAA
UniProt P01024, sequence (P01024 749-1303 limits assumed, chain 2 of 3): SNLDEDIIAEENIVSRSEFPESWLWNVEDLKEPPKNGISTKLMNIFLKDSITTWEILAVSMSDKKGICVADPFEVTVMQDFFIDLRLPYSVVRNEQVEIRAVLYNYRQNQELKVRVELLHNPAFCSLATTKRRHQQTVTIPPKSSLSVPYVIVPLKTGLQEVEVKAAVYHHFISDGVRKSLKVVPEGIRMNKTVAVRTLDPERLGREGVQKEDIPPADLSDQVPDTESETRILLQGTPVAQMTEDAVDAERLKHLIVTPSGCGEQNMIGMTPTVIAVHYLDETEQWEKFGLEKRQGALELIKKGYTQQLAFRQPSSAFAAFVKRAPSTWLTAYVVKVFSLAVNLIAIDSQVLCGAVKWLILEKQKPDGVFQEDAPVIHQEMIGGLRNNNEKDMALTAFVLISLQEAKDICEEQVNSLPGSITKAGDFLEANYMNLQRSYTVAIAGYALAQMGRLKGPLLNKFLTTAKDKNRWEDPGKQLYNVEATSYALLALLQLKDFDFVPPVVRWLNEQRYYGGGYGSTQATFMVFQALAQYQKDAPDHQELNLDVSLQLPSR
UniProt P01024, sequence (P01024 1321-1663 limits assumed, chain 3 of 3): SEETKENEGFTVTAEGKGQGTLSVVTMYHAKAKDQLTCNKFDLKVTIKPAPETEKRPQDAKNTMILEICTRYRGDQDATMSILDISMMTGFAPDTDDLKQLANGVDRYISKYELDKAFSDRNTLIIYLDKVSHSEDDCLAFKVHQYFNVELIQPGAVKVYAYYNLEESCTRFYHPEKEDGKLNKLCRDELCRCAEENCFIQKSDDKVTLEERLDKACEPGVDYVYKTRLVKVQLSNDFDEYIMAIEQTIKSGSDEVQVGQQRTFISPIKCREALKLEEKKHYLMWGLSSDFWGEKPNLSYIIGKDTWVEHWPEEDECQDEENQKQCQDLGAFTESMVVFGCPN

mouse anti-iC3b antibody A209 (Quidel) showed a raw A450 at iC3b 1 ug/ml [1] of 0.371 OD, a raw A450 at iC3b 1 ug/ml [2] of 0.344 OD and a raw A450 at iC3b 0.5 ug/ml [3] of 0.265 OD. It also gave a raw A450 at iC3b 0.063 ug/ml [4] of 0.07 OD, a raw A450 at iC3b 0.031 ug/ml [5] of 0.048 OD and a raw A450 at iC3b 0.016 ug/ml [6] of 0.038 OD. It also gave a raw A450 at iC3b 0.5 ug/ml [7] of 0.406 OD, a raw A450 at iC3b 0.25 ug/ml [8] of 0.433 OD and a raw A450 at iC3b 0.063 ug/ml [9] of 0.362 OD. It also gave a raw A450 at iC3b 0.063 ug/ml [10] of 0.353 OD, a raw A450 at iC3b 0.063 ug/ml [11] of 0.355 OD and a raw A450 at iC3b 0.125 ug/ml [12] of 0.274 OD. For the same substance, the raw A450 at iC3b 0.063 ug/ml [13] was 0.254 OD, the raw A450 at iC3b 0.031 ug/ml [14] was 0.248 OD and the raw A450 at iC3b 0.0078 ug/ml [15] was 0.229 OD. The raw A450 at iC3b 0.0078 ug/ml [16] was 0.207 OD, the A450 minus matrix average at iC3b 0.0078 ug/ml [17] was -0.002 OD and the A450 minus matrix average at iC3b 0.016 ug/ml [17] was 0 OD. The A450 minus matrix average at iC3b 0.031 ug/ml [17] was 0.012 OD, the A450 minus matrix average at iC3b 0.063 ug/ml [17] was 0.03 OD and the A450 minus matrix average at iC3b 0.25 ug/ml [17] was 0.099 OD. The A450 minus matrix average at iC3b 0.5 ug/ml [17] was 0.122 OD, the A450 minus matrix average at iC3b 1 ug/ml [17] was 0.182 OD and the A450 minus matrix average at iC3b 0.0078 ug/ml [18] was 0.0042 OD. The A450 minus matrix average at iC3b 0.016 ug/ml [18] was -0.02 OD, the A450 minus matrix average at iC3b 0.031 ug/ml [18] was -0.005 OD and the A450 minus matrix average at iC3b 0.063 ug/ml [18] was 0.008 OD. The A450 minus matrix average at iC3b 0.125 ug/ml [18] was 0.027 OD, the A450 minus matrix average at iC3b 0.25 ug/ml [18] was 0.051 OD and the A450 minus matrix average at iC3b 0.5 ug/ml [18] was 0.045 OD. For the same substance, the A450 minus matrix average at iC3b 1 ug/ml [18] was 0.087 OD.
